Source: patent publication US20230051715A1 (MABWELL THERAPEUTICS, published 2023)

T1: human C1s mutant M1 (M277I) (human, UniProt P09871 16-688)
T1 construct: The entry is the mutant itself
T1 sequence: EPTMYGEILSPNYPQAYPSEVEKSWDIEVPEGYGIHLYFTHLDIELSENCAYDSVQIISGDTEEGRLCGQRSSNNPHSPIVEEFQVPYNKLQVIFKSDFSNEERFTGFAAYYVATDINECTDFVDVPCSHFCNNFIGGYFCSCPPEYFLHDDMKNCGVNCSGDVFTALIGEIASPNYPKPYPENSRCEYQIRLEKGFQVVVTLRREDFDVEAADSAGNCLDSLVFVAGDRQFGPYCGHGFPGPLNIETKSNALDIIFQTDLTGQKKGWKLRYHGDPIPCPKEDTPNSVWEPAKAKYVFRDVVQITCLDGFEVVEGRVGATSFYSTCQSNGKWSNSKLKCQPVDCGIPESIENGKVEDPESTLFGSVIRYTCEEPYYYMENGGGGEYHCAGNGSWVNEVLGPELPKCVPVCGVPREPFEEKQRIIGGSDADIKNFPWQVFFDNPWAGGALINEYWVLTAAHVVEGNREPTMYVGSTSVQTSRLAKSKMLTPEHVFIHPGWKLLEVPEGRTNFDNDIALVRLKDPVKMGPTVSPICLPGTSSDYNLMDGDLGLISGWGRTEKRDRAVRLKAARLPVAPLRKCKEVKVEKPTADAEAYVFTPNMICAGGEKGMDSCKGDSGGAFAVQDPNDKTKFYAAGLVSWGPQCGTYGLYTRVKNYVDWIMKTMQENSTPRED

T2: human C1s mutant M12 (G381E & G382E) (human, UniProt P09871 16-688)
T2 construct: The entry is the mutant itself
T2 sequence: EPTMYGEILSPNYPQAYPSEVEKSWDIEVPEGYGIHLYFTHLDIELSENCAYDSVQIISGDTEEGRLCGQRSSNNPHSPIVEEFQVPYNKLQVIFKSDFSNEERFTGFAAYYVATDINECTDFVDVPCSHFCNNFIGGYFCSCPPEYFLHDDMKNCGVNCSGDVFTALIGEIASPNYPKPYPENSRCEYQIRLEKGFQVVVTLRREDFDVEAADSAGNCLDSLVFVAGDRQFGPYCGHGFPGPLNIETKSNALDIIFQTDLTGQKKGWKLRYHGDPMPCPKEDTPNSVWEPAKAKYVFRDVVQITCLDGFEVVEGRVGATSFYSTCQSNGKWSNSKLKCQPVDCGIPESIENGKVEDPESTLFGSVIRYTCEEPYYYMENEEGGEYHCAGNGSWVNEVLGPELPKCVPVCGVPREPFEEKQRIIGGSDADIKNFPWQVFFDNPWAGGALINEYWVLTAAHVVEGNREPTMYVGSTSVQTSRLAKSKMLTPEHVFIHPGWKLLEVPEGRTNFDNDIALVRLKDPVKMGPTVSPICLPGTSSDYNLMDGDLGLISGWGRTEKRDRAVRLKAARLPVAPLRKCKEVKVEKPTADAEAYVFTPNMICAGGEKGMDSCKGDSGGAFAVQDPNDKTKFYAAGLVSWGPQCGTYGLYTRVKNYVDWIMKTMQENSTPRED

T3: human C1s mutant M7 (D343Y & E351A) (human, UniProt P09871 16-688)
T3 construct: The entry is the mutant itself
T3 sequence: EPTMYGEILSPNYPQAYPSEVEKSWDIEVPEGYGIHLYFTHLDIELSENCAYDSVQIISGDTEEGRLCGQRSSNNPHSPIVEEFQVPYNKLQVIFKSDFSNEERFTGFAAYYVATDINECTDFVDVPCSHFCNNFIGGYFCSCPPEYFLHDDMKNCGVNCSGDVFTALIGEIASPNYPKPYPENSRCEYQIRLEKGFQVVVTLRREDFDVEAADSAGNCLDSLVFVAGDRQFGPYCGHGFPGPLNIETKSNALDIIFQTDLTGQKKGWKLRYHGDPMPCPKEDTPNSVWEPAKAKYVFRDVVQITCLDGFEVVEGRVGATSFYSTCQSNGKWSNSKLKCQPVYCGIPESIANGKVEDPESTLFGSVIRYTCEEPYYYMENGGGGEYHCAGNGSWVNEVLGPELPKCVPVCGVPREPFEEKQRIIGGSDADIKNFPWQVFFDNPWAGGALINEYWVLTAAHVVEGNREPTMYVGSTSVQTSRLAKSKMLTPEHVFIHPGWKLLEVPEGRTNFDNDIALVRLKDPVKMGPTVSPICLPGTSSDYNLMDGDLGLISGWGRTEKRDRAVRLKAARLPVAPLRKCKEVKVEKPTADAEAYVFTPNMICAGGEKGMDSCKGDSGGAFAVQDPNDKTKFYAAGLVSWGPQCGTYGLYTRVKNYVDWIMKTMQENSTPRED


Columns and labels:
[1] = target: T1, human C1s mutant M1 (M277I); test: ELISA, plate coated with human C1s mutant M1: M277I, OD450nm
Procedure: (§1) ELISA was carried out by first coating 96-well plates with 200 ng/well of full-length or truncated C1s proteins overnight. The next morning, plates were blocked with SuperBlock T20 blocking buffer (Thermo Scientific 37536) for 1 h with gentle shaking. Then, various concentrations of anti-C1s antibodies diluted in SuperBlock T20 blocking buffer were added to the plates and incubated for 1 h with gentle shaking. Mouse IgG (Sigma-Aldrich 15381) and human IgG1 (BioXCell BP0297) were used as negative controls. The plates were washed before incubating with HRP conjugated secondary antibodies diluted in SuperBlock T20 blocking buffer (goat anti-mouse IgG (H+L) cross-adsorbed secondary antibody HRP (Invitrogen G-21040) or goat anti-human IgG antibody, HRP conjugate (Millipore AP309P)) for 1 h with gentle shaking. At last, the plates were washed and color developed with ELISA liquid HRP substrate (Sigma-Aldrich), followed by stopping the reaction with addition of 1M H₂SO₄ in the same volume as the ELISA liquid substrate. Bound antibody was measured by absorbance at OD₄₅₀ₙₘ.
(§2) Binding of anti-C1s antibodies to mutants M1-M20 of human C1s was measured by ELISA as described in Example 4, and results are shown in FIGS. 6B-6U. All anti-C1s humanized variants including hz2-7(H1L2), hz2-8(H1L2 G80A) and hz2-8(H1L2 G80A/T82A) maintained strong binding properties to the majority (16 out of 20) of C1s mutants including M1 (FIG. 6B), M2 (FIG. 6C), M3 (FIG. 6D). M4 (FIG. 6E), M7 (FIG. 6H), M8 (FIG. 6I), M10 (FIG. 6K), M11 (FIG. 6L), M12 (FIG. 6M), M13 (FIG. 6N), M15 (FIG. 6P), M16 (FIG. 6Q), M17 (FIG. 6R), M18 (FIG. 6S), M19 (FIG. 6T) and M20 (FIG. 6U).

[2] = target: T2, human C1s mutant M12 (G381E & G382E); test: ELISA, plate coated with human C1s mutant M12: G381E, G382E, OD450nm
Procedure: as §1, §2

[3] = target: T3, human C1s mutant M7 (D343Y & E351A); test: ELISA, plate coated with human C1s mutant M7: D343Y, E351A, OD450nm
Procedure: as §1, §2

EC50 [1] [ng/mL] | EC50 [2] [ng/mL] | EC50 [3] [ng/mL] | Binder
9 | 5 | 15 | Anti-C1s antibody hz2-7(H1L2) (antibody, V domains shown, Humanized, human IgG1 / kappa; also called hz2-7(1L2)) VH: EVQLLESGGGLVQPGGSLRLSCAASGFTFSNYFMNWVRQAPGKGLEWVSEIRLKFTNYATHYADSVKGRFTISRDDSKSTLYLQMNSLRAEDTAVYYCTRDYGSRNGYFDYWGQGTLVTVSS VL: DIVMTQTPLSLPVTPGEPASISCRSSKSLLHSNGNTFLYWFLQKPGQSPQLLIYRMSNLASGVPDRFSGSGSGTDFTLKISRVEAEDVGVYYCMQHLEYPYTFGGGTKLEIKR
7 | 5 | 12 | Anti-C1s antibody hz2-8 (H1L2 G80A) (antibody, V domains shown, Humanized variant with G80A in HC CDR2 (already in the entry), human IgG1 / kappa) VH: QVQLVQSGAEVKKPGASVKVSCKASGFNIKEYYMHWVRQAPEQGLEWMGWIDPENADTIYAQKFQGRVTITADTSTNTAYMELSSLRSEDTAVYYCARSRLFFAYWGQGTLVTVSS VL: DIQMTQSPKSLSASVGDRVTITCRASQDVRTALDWYQQKPGQSPKLLIYSASYRYSGVPSRFSGSGSGTDFTLTISSLQPEDFATYYCQQQYTTPYTFGQGTKLEIKR
5 | 5 | 11 | Anti-C1s antibody hz2-8 (H1L2 G80A/T82A) (antibody, V domains shown, Humanized variant with G80A and T82A in HC CDR2 (already in the entry), human IgG1 / kappa) VH: QVQLVQSGAEVKKPGASVKVSCKASGFNIKEYYMHWVRQAPEQGLEWMGWIDPENADAIYAQKFQGRVTITADTSTNTAYMELSSLRSEDTAVYYCARSRLFFAYWGQGTLVTVSS VL: DIQMTQSPKSLSASVGDRVTITCRASQDVRTALDWYQQKPGQSPKLLIYSASYRYSGVPSRFSGSGSGTDFTLTISSLQPEDFATYYCQQQYTTPYTFGQGTKLEIKR
